In patent publication US20240336686A1 (ELPISCIENCE SUZHOU BIOPHARMA, published 2024):
Read-outs that look alike come from different tables or passages of the source. Blank lines part the entries; values can stand above or below the binder they belong to.

How the values were obtained:
[1] = target: T1, Full length human SIRPα v1 with beta-gal fragment (ED) at its C-terminal, in K562 cells (human, UniProt P78324 31-504); assay: cell-based or functional assay
[2] = target: T2, human SIRPα v2 ECD recombinant protein (human); assay: competitive ELISA, plate-coated human SIRPα v2 ECD; blocked ligand: mFc tagged human CD47 ECD
T2 construct: extracellular domain; Coated on the ELISA plate
Experimental: (§1) Competitive ELISA assay was used to determine whether the purified chimeric antibodies can block CD47 and SIRPα interaction. Briefly, antibody and mFc tagged human CD47 ECD recombinant protein were co-incubated with ELISA microplate coated human SIRPα v1 ECD or human SIRPα v2 ECD recombinant protein. The concentration of soluble ECD of CD47 is 25 nM, and the concentration of soluble ECD of SIRPα is 20 nM. After washing, HRP labeled anti-mouse Fc 2nd antibody (Sigma) was added and incubated at 37° C. for 1 hour. Then, 100 μl/well of TMB solution (Biotechnology) was added. After incubation for 15 minutes at room temperature, the reaction was stopped by the addition of 50 μl of 1N HCl. OD 450 nm was read. Blocking ratio was determined by blockade of human SIRPα ECD recombinant protein binding to ELISA microplate coated human CD47 ECD recombinant protein. All antibodies as tested can block interaction between human CD47 and different human SIRPα variants.

[3] = target: T3, human SIRPα v1 ECD recombinant protein (human, UniProt P78324 31-373); assay: competitive ELISA, plate-coated human SIRPα v1 ECD; blocked ligand: mFc tagged human CD47 ECD
T3 construct: extracellular domain; Coated on the ELISA plate
T3 sequence (P78324 31-373): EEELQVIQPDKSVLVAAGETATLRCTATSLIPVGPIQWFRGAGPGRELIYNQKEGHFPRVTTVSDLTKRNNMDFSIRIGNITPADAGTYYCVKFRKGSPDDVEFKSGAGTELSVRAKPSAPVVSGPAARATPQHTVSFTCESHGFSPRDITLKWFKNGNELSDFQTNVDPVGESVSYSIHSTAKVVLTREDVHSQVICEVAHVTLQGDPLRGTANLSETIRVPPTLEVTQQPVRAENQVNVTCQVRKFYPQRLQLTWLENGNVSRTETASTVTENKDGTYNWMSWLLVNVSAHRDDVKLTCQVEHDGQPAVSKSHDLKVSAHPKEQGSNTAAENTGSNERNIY
Experimental: as §1

[4] = target: T4, human SIRPα v2 on CHOK1 cells (human, UniProt P78324 31-504); assay: FACS, CHOK1 cells stably expressing human SIRPα v2
T4 construct: whole, on cells; also called CHOK1-hSIRPα v2; cell surface human SIRPα v2
T4 sequence (P78324 other isoform, or with tags, fused parts or gaps limits assumed): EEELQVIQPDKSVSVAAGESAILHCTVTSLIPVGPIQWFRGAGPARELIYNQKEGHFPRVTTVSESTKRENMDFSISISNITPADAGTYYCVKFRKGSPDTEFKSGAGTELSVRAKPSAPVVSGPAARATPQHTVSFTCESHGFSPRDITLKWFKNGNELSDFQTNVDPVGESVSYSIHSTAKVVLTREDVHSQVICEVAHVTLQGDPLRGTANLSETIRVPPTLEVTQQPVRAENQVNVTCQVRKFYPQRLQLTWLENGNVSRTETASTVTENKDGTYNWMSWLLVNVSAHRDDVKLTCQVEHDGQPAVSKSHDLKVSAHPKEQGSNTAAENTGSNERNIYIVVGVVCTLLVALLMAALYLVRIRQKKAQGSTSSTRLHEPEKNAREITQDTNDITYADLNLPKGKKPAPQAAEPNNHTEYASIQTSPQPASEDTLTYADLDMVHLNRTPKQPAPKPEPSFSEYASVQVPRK
Excerpt: (§2) Binding activity of the purified chimeric antibodies against human SIRPα variants was detected by FACS assay using CHOK1 cells or 293F cells stably expressing human SIRPα v1 and CHOK1 cells stably expressing human SIRPα v2. […] EC₅₀ and top signal calculated using GraphPad Prism9.0.

[5] = target: T5, human SIRPα v1 on CHOK1 cells (human, UniProt P78324 31-504); assay: FACS, CHOK1 cells stably expressing human SIRPα v1
T5 construct: whole, on cells; also called CHOK1-hSIRPα v1; cell surface human SIRPα v1
T5 sequence (P78324 31-504): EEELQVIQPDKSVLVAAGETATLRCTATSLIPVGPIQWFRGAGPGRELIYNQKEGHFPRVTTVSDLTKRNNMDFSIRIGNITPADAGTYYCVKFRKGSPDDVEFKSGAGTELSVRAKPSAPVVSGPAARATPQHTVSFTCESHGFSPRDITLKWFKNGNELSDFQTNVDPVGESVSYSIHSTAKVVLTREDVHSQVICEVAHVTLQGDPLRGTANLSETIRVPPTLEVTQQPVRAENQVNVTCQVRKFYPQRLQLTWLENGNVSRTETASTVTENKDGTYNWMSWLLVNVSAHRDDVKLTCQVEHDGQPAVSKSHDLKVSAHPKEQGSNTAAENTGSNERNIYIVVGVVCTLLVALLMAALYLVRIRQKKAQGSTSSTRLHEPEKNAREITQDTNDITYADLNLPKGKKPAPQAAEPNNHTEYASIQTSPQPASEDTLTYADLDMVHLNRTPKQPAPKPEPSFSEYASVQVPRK
Excerpt: as §2

[6] = target: human PDL1 protein (Octet assay) (human, UniProt Q9NZQ7 19-238); assay: Octet; antibody on sensor, PDL1 protein in solution
Sequence of human PDL1 protein (Octet assay) (Q9NZQ7 19-238 limits assumed): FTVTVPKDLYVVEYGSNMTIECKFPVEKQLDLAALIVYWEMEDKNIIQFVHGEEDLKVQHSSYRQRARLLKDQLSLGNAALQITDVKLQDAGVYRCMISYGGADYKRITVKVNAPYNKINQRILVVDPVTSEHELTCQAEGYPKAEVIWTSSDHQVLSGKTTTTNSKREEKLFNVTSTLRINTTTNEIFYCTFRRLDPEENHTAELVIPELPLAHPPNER
Experimental: The Anti-PDL1/SIRPα bispecific protein were characterized for binding affinity against human PDL1 using Octet assay (ForeBio) according to manufacturer's manual, separately. Briefly, the antibodies were coupled on sensors and then the sensors were dipped into PDL1 protein gradients (start at 200 nM, with 2-fold dilution and totally 8 doses). Their binding responses were measured in real-time and results were fit globally.

human PDL1 on cells = human PDL1 on cells (human, UniProt Q9NZQ7 19-290); assay: cell-based or functional assay
Sequence of human PDL1 on cells (Q9NZQ7 19-290): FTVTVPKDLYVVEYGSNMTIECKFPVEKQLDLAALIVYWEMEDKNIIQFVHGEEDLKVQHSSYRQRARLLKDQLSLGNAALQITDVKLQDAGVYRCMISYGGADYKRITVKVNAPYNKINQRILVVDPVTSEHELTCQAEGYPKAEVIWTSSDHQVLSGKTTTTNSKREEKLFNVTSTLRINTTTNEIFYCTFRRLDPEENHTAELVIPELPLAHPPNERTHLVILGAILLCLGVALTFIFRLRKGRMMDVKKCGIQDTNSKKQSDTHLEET

[7] = target: T5, human SIRPα v1 on CHOK1 cells; assay: FACS, CHOK1 cells stably expressing human SIRPα v1; remark: listed apart in the source
[8] = target: T4, human SIRPα v2 on CHOK1 cells; assay: FACS, CHOK1 cells stably expressing human SIRPα v2; remark: listed apart in the source
[9] = target: T3, human SIRPα v1 ECD recombinant protein; assay: competitive ELISA, plate-coated human SIRPα v1 ECD; blocked ligand: mFc tagged human CD47 ECD; remark: listed apart in the source
Experimental: as §1
(§3) The humanized antibodies were tested for the ability to block CD47 and SIRPα interaction with competitive ELISA assay (refer to methods described above).

[10] = target: T5, human SIRPα v1 on CHOK1 cells; assay: competitive FACS, CHOK1 cells stably expressing human SIRPα v1; blocked ligand: mFc tagged human CD47 ECD
Experimental: (§4) Competitive FACS assay was also set up to further compare the blocking activity of the humanized antibodies and some known anti-SIRPα antibodies. Briefly antibody and mFc tagged human CD47 ECD recombinant protein were co-incubated with CHOK1 cells stably expressing human SIRPα v1 or human SIRPα v2. After washing, dye labeled anti-mouse Fc 2nd antibody (Sigma) was added and incubated at 37° C. for 1 hour. Fluorescence intensity was detected. Blocking ratio was determined by blockade of human CD47 ECD recombinant protein binding to SIRPα expressed CHOK1 cells.

[11] = target: T2, human SIRPα v2 ECD recombinant protein; assay: competitive ELISA, plate-coated human SIRPα v2 ECD; blocked ligand: mFc tagged human CD47 ECD; remark: listed apart in the source
Experimental: as §1, §3

[12] = target: T1, Full length human SIRPα v1 with …; assay: cell-based or functional assay; remark: listed apart in the source
Human SIRPα v2 = target: T6, Human SIRPα v2 (human); assay: SPR (Biacore), 1:1 binding model
T6 construct: also called human SIRPα v2 (antigen of the Biacore assay)
Experimental: The humanized antibodies were characterized for binding affinity against human SIRPα v1, human SIRPα v2 using Surface Plasmon Resonance technology (Biacore system). The association and dissociation curves were fit with 1:1 binding model, and the Ka/Kd/KD values for each antibody were calculated.

[13] = target: T4, human SIRPα v2 on CHOK1 cells; assay: competitive FACS, CHOK1 cells stably expressing human SIRPα v2; blocked ligand: mFc tagged human CD47 ECD
Experimental: as §4

[14] = target: T7, mFc tagged human SIRPα v1 ECD recombinant protein (human, UniProt P78324 31-373); assay: competitive ELISA; row antibody in excess in solution, coated mAb 025c
T7 construct: extracellular domain; not shown: mouse Fc tag
T7 sequence (P78324 31-373): as the sequence (P78324 31-373) above
Experimental: (§5) Competitive ELISA assay was used for epitope binning of purified chimeric antibodies. Briefly excessive competitor antibody and mFc tagged human SIRPα v1 ECD recombinant protein were co-incubated with ELISA microplate coated antibody. After washing, HRP labeled anti-mouse Fc 2nd antibody (Sigma) was added and incubated at 37° C. for 1 hour. Then, 100 μl/well of TMB solution (Biotechnology) was added. After incubation for 15 minutes at room temperature, the reaction was stopped by the addition of 50 μl of 1N HCl. OD 450 nm was read. Competition ratio was calculated. The antibodies that can compete each other for binding to SIRPα may have related binding epitopes.

[15] = target: T7, mFc tagged human SIRPα v1 ECD …; assay: competitive ELISA; row antibody in excess in solution, coated mAb hu1H9G4
Experimental: as §5

[16] = target: T7, mFc tagged human SIRPα v1 ECD …; assay: competitive ELISA; row antibody in excess in solution, coated mAb 042c
Experimental: as §5

T1 sequence (P78324 31-504): as the sequence (P78324 31-504) above

B1: Anti-SIRPα antibody C15 (antibody, V domains shown)
VH: EVQLQQSGVEVVQPGASVKLSCTASGFNIEAYYMHWVKQRTEQGLEWIGRIDPEDGESKYAPKFQGKATMTADTSSSTAYLQLSSLTSDDTAVYYCVRGSYEYWGQGTTLTVSS
VL: QIVLTQSPAIMSASPGEKVTLTCSASSSVSSSYLYWYQQKPGSSPKLWIYSTSNLASGVPPRFSGSGSGTSYSLTISSMQAEDAASYFCYQWSSYPYTFGGGTKLEIK
notes: Mouse variable regions; tested as purified chimeric antibody; also called 015c
IC50 (SHP-1 recruitment blocking) [1]: 0.09 nM | TOP blocking (SHP-1 recruitment) [1]: 73.5% | IC50 [2]: 2.45 nM | TOP blocking [2]: 96.7% | IC50 [3]: 2.32 nM | TOP blocking [3]: 96.4% | EC50 [4]: 1.58 nM | TOP MFI [4]: 50100 MFI | EC50 [5]: 1.49 nM | TOP MFI [5]: 80000 MFI

B2: Anti-PDL1/SIRPα bispecific antibody ES019-026 (bispecific antibody, not shown: small tags and cut ends; a dimerising Fc or GST)
light (part 1 of 2): EVQVVESGGGLVQSGGSLKLSCAGSGFTESAGFMVWHRQVPGKERELVALIATPSGSTNYADSVKGRFTISRDNGKNTVYLQMNSLKPEDTAVYYCNIRGYWGQGTLVTVSS
light (part 2 of 2): QIVLTQSPAIMSASPGEKVTLTCSASSSVSSSYLYWYQQKPGSSPKLWIYSTSNLASGVPARFSGSGSGTSYSLTISSMEAEDAASYFCHQWSSYPYTFGGGTKLEIK
heavy: EVQLQQSGAELVKPGASVKLSCTASGFNIKDYYMHWVKQRTEQGLEWIGRIDPEDGETKYAPKFQGKATITADTSSNTAYLQLSSLTSEDTAVYYCDRGLAYWGQGTLVTVSA
Kd [6]: 4.1 nM | koff [6]: 0.00639 s⁻¹ | kon [6]: 1.56e+06 M⁻¹ s⁻¹ | EC50 (read off the curve) (human PDL1 on cells): ~1 nM

B5: Reference anti-SIRPα antibody hu1H9G4 (antibody, human IgG4, V domains shown)
VH: QVQLVQSGAEVKKPGASVKVSCKASGYTFTSYWITWVKQAPGQGLEWIGDIYPGSGSTNHIEKFKSKATLTVDTSISTAYMELSRLRSDDTAVYYCATGYGSSYGYFDYWGQGTLVTVSS
VL: DIQMTQSPSSLSASVGDRVTITCRASENIYSYLAWYQQKPGKAPKLLIYTAKTLAEGVPSRFSGSGSGTDFTLTISSLQPEDFATYYCQHQYGPPFTFGQGTKLELK
% Competition [14]: 14.5% | % Competition [15]: 90.5% | % Competition [16]: 82.6%

The remaining lines, values ahead:

EC50 [7]: 1.13 nM | TOP MFI [7]: 57800 MFI | EC50 [8]: 0.81 nM | TOP MFI [8]: 45800 MFI | IC50 [9]: 2.6 nM | TOP blocking [9]: 97.2% | IC50 [10]: 0.57 nM | TOP blocking [10]: 97.7% | IC50 [11]: 2.07 nM | TOP blocking [11]: 98% | IC50 (SHP-1 recruitment blocking) [12]: 0.1 nM | TOP blocking (SHP-1 recruitment) [12]: 85.5% | Kd (Human SIRPα v2): 2.78 nM | koff (Human SIRPα v2): 0.00492 s⁻¹ | kon (Human SIRPα v2): 1.77e+06 M⁻¹ s⁻¹ | IC50 [13]: 0.75 nM | TOP blocking [13]: 100%
B3: Humanized anti-SIRPα antibody hu025.023 (antibody, V domains shown)
VH: EVQLVQSGAEVKKPGATVKISCKVSGFNIKDYYMHWVQQAPGKGLEWIGRIDPEDAETKYAPKFQGRVTITADTSTNTAYMELSSLRSEDTAVYYCDRGLAYWGQGTLVTVSS
VL: EIVLTQSPATLSLSPGERATLSCSASSSVSSSYLYWYQQKPGQAPKLWIYSTSNLASGIPARFSGSGSGTDFTLTISSLEPEDFAVYYCHQWSSYPYTFGQGTKLEIK
notes: Humanized from C25

EC50 [7]: 0.84 nM | TOP MFI [7]: 61500 MFI | EC50 [8]: 0.8 nM | TOP MFI [8]: 48800 MFI | IC50 [9]: 2.15 nM | TOP blocking [9]: 95.2% | IC50 [10]: 0.53 nM | TOP blocking [10]: 98.7% | IC50 [11]: 1.88 nM | TOP blocking [11]: 97% | IC50 (SHP-1 recruitment blocking) [12]: 0.09 nM | TOP blocking (SHP-1 recruitment) [12]: 87.5% | Kd (Human SIRPα v2): 2.34 nM | koff (Human SIRPα v2): 0.00344 s⁻¹ | kon (Human SIRPα v2): 1.47e+06 M⁻¹ s⁻¹ | IC50 [13]: 0.77 nM | TOP blocking [13]: 99.8%
B4: Humanized anti-SIRPα antibody hu025.060 (antibody, V domains shown)
VH: EVQLVQSGAEVKKPGATVKISCKASGFNIKDYYMHWVQQAPGKGLEWIGRIDPEDAETKYAPKFQGRVTITADTSTNTAYMELSSLRSEDTAVYYCDRGLAYWGQGTLVTVSS
VL: EIVLTQSPATLSLSPGERATLSCSASSSVSSSYLYWYQQKPGQAPKLWIYSTSNLASGIPARFSGSGSGTDFTLTISSLEPEDFAVYYCHQWSSYPYTFGQGTKLEIK
notes: Humanized from C25

IC50 (SHP-1 recruitment blocking) [1]: 0.07 nM | TOP blocking (SHP-1 recruitment) [1]: 66.9% | IC50 [2]: 54.1 nM | TOP blocking [2]: 84.4% | IC50 [3]: 2.63 nM | TOP blocking [3]: 97% | EC50 [4]: 12 nM | TOP MFI [4]: 19600 MFI | EC50 [5]: 1.45 nM | TOP MFI [5]: 69800 MFI
B6: Anti-SIRPα antibody C59 (antibody, V domains shown)
VH: QVQLQQSGPELVKPGASVKMSCKASGYTFSEYVLSWVKQRTGQGLEWIGEIYPGTITTYYNEKFKGKATLTADKSSNTAYIQLTSLTSEDSAVYFCGRFYDYDGGWFAYWGQGTLLTVSA
VL: ENVLTQSPEKMAVSLGQKVTMTCSASSSVSSSDLHWYQQKSGASPKPLIHGTSNLASGVPARFSGSGSGTSYSLTISSVEAEDAATYYCQQWSGYPWTFGGGTNLEIK
notes: Mouse variable regions; tested as purified chimeric antibody; also called 059c

% Competition [14]: 8.9% | % Competition [15]: 29.8% | IC50 (SHP-1 recruitment blocking) [1]: 0.99 nM | TOP blocking (SHP-1 recruitment) [1]: 70% | IC50 [2]: 4.49 nM | TOP blocking [2]: 94.6% | IC50 [3]: 3.6 nM | TOP blocking [3]: 97.1% | EC50 [4]: 4.21 nM | TOP MFI [4]: 54800 MFI | % Competition [16]: 93.9% | EC50 [5]: 1.9 nM | TOP MFI [5]: 73200 MFI
B7: Anti-SIRPα antibody C42 (antibody, human IgG4, V domains shown)
VH: QIQLVQSGPELKKPGETVKISCRASGYTFTTYGMSWVKQAPGKGLRWMGWINTYSGVSTCADDFKGRFAFSLETSATTAYLQIHNLTNEDTATYFCARDPHSYGNSPAWFPYWGQGTLVTVSA
VL: DIVMTQSQKFMSTTIRDRVSITCKASQNVGISVAWYQQKSGQSPKLLIYSASNRYTGVPDRFTGSGSGTDFTLTISNMQSEDLADYFCQQYSSYPLTFGSGTKLAIK
notes: Mouse variable regions; also called 042c
